Experimental data from paper PMC1802081 (BMC Structural Biology, 2007).
Positions count from the first letter of the chain named.

B1: ActR-IIB receptor ectodomain (ActR-IIBECD) (receptor, UniProt P27040 19-137, looked up)
chain: SGRGEAETRECIYYNANWELERTNQSGLERCEGEQDKRLHCYASWRNSSGTIELVKKGCWLDDFNCYDRQECVATEENPQVYFCCCEGNFCNERFTHLPEPGGPEVTYEPPPTAPTLLT
notes: mouse is recalled from the PDB entry 2H62 and should be checked there; also called activin type IIB receptor ectodomain; source: E. coli OrigamiB (DE3), purified (Ni2+-IMAC, thrombin cleavage, anion exchange, reversed phase HPLC)
B2: BMPR-II receptor ectodomain (receptor, UniProt Q13873 27-150, looked up)
chain: SQNQERLCAFKDPYQQDLGIGESRISHENGTILCSKGSTCYGLWEKSKGDINLVKQGCWSHIGDPQECHYEECVVTTTPPSIQNGTYRFCCCSTDLCNVNFTENFPPPDTTPLSPPHSFNRDET
notes: BMP type II receptor (BMPR-II), extracellular domain; also called BMPR-IIECD; source: expressed and purified as described earlier [28]
B3: BMP-7 (CHO cells, R&D Systems) (ligand, UniProt P18075 293-431, looked up)
chain: STGSKQRSQNRSKTPKNQEALRMANVAENSSSDQRQACKKHELYVSFRDLGWQDWIIAPEGYAAYYCEGECAFPLNSYMNATNHAIVQTLVHFINPETVPKPCCAPTQLNAISVLYFDDSSNVILKKYRNMVVRACGCH
modifications: biotin (biotinylated for the biosensor; site not stated)
notes: bone morphogenetic protein 7 (BMP-7), mature ligand; source: bought: R&D Systems (CHO cells)
B4: ActR-IIBECD L61P (receptor, UniProt P27040 19-137, looked up)
chain: B1 chain with L61P
notes: also called ActR-IIBL61P; source: E. coli OrigamiB (DE3), purified (Ni2+-IMAC, thrombin cleavage, anion exchange, RP-HPLC)
B5: ActR-IIBECD K56A (receptor, UniProt P27040 19-137, looked up)
chain: B1 chain with K56A
notes: source: E. coli OrigamiB (DE3), purified (Ni2+-IMAC, thrombin cleavage, anion exchange, RP-HPLC)
B6: ActR-IIBECD L61A (receptor, UniProt P27040 19-137, looked up)
chain: B1 chain with L61A
notes: also called ActR-IIBL61A; source: E. coli OrigamiB (DE3), purified (Ni2+-IMAC, thrombin cleavage, anion exchange, RP-HPLC)
B7: ActR-IIBECD K37A (receptor, UniProt P27040 19-137, looked up)
chain: B1 chain with K37A
notes: as for B5
B8: ActR-IIBECD E34A (receptor, UniProt P27040 19-137, looked up)
chain: B1 chain with E34A
notes: as for B5
B9: ActR-IIBECD Q80A (receptor, UniProt P27040 19-137, looked up)
chain: B1 chain with Q80A
notes: as for B5
B10: ActR-IIBECD R46A (receptor, UniProt P27040 19-137, looked up)
chain: B1 chain with R46A
notes: as for B5
B11: ActR-IIBECD Y42A (receptor, UniProt P27040 19-137, looked up)
chain: B1 chain with Y42A
notes: as for B5
B12: ActR-IIBECD D63A (receptor, UniProt P27040 19-137, looked up)
chain: B1 chain with D63A
notes: as for B5

Target: T1, wildtype BMP-2 (bone morphogenetic protein 2), E. coli derived (UniProt P12643 283-396)
T1 construct: dimeric ligand; also called wtBMP-2; BMP-2 dimer
Test: SEC; ternary complex of wildtype BMP-2 as isolated from gelfiltration (HBS700 buffer); its composition by reversed phase HPLC, peak areas divided by the extinction coefficients
Conditions: both partners purified

Row | Binder | stoichiometry N
1 | B1 | 1.97 ActR-IIBECD per 0.98 BMP-2 dimer

Target: T1, wildtype BMP-2 (bone morphogenetic …)
Test: SEC; ternary complex of wildtype BMP-2 as isolated from gelfiltration (HBS700 buffer); its composition by analytical SDS-PAGE, band intensities compared with standard mixtures of defined molar ratios
Conditions: both partners purified

Row | Binder | stoichiometry N
2 | B1 | 2.1 ActR-IIBECD per BMP-2 dimer

Target: T2, binary complex BMP-2:BMPR-IAECD (purified) (UniProt P12643 283-396; P36894 24-152)
T2 construct: as the chain of Dm1; as the chain of Dm2; Complex formed beforehand and placed in the calorimeter cell at 7.5 uM; also called BMP-2:BMPR-IAECD complex; binary complex of BMP-2 and BMPR-IAECD; copies: 2 + 2
Test: ITC; VP-ITC, 298 K (25 C), HBS500 buffer (10 mM HEPES, 500 mM NaCl, pH 7.4); 150 uM ActR-IIBECD in the syringe, 7.5 uM binary complex BMP-2:BMPR-IAECD in the cell; one-site-binding model
Conditions: both partners purified

Row | Binder | stoichiometry N
3 | B1 | 2

Target: B3
Test: SPR; BIACORE 2000; biotinylated ligand on a streptavidin-modified CM5 chip (about 200 RU); receptor ectodomain as analyte at 1, 2, 3, 5, 10, 20 and 50 uM; HBS500 (10 mM HEPES pH 7.4, 500 mM NaCl, 3.4 mM EDTA, 0.005% P20); apparent KD from the dose dependence of equilibrium binding
Conditions: both partners purified

Row | Binder | Kd [µM]
4 | B2 | 32

Target: T3, ActR-II receptor ectodomain (UniProt P27037 20-135)
T3 construct: activin receptor type II (ActR-II), extracellular domain; also called ActR-IIECD; source: expressed and purified as described earlier [28]
Test: as above
Conditions: both partners purified

Row | Binder | Kd [µM]
5 | B3 | 0.43

Target: T4, glycosylated BMP-2 expressed in CHO cells (UniProt P12643 283-396, glycosylated; biotin (biotinylated for the biosensor; site not stated))
T4 construct: bone morphogenetic protein 2 (BMP-2), mature ligand; also called BMP-2 (CHO cells, R&D Systems); source: bought: R&D Systems (CHO cells)
Test: as above
Conditions: both partners purified

Row | Binder | rel. KD (against wildtype ActR-IIBECD on the same ligand) [fold]
6 | B4 | 7.9
7 | B5 | 11
8 | B6 | 6.4
9 | B7 | 6.1
10 | B8 | 1
11 | B9 | 1.3
12 | B10 | 8.4
13 | B11 | 61
14 | B12 | 9.6

Target: B3
Test: as above
Conditions: both partners purified
Remark: another data set of the same source

Row | Binder | rel. KD (against wildtype ActR-IIBECD on the same ligand) [fold]
15 | B4 | 19
16 | B5 | 14
17 | B6 | 6.4
18 | B7 | 0.3
19 | B8 | 1.8
20 | B9 | 1
21 | B10 | 3.3
22 | B11 | 49
23 | B12 | 6.7

Target: T5, activin A (Sf9 cells) (UniProt P08476 311-426, biotin (biotinylated for the biosensor; site not stated))
T5 construct: activin A (dimer of inhibin beta A chains), mature ligand; also called Act-A; source: Sf9 cells [59]
T5 sequence (looked up): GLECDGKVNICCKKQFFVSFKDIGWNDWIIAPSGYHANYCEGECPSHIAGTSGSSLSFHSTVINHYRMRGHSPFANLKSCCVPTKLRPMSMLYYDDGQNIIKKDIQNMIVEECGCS
Test: as above
Conditions: both partners purified

Row | Binder | rel. KD (against wildtype ActR-IIBECD on the same ligand) [fold]
24 | B4 | 2510
25 | B5 | 2.7
26 | B6 | 24
27 | B7 | 0.7
28 | B8 | 1
29 | B9 | 1.1
30 | B10 | 2.9
31 | B11 | 290
32 | B12 | 8.6

Target: T6, binary complex of BMP-2 bound to immobilized BMPR-IAECD (formed on the biosensor) (UniProt P12643 283-396; P36894 24-152)
T6 construct: as the chain of Dm4; as the chain of Dm2; also called BMP-2 in complex with immobilized BMPR-IAECD; binary BMP-2:BMPR-IAECD complex; source: formed on the biosensor by perfusion of immobilized BMPR-IAECD with 200nM BMP-2; copies: 2 +
Test: SPR; BMPR-IAECD immobilised; perfusion with 200 nM BMP-2 for 300 s to form the binary complex, then ActR-IIBECD as analyte at 1 to 50 uM for 120 s; apparent KD from the dose dependence of equilibrium binding, Scatchard analysis
Conditions: both partners purified

Row | Binder | Kd [µM]
33 | B1 | 9
